This assay addresses eukaryotic elongation factor 2 (eEF2) (rat, UniProt P05197 2-858). Kind of assay: pull-down from rat brain homogenate with streptavidin agarose, Western blot.

Ends that are not written are not given here. * marks the point of attachment. Biotin = O=C1N[C@H]2[C@H](CS[C@H]2CCCCC(=O)*)N1

B1: peptide 1 (Ac-RRQRYTPFPLGFE-Lys(Biotin)-NH2-OH), peptide derived from the G-H loop of ephrinA4 (peptide)
peptide: Ac-RRQRYTPFPLGFEK(Biotin)
modifications: not fully specified; printed as Ac-RRQRYTPFPLGFE-Lys(Biotin)-NH2-OH
notes: also called pep-ephrinA4; ephrinA4 peptide
As to B1, the binding result is “no binding (tested: 20 micrograms)”.

The record behind these values is patent publication US20160083428A1 (CARMEL HAIFA UNIVERSITY ECONOMIC, published 2016).
